How the values were obtained:
[1] = molecular target: T1, variant nuclease T338G combination (P14R, D32R, I61R, E311R, T338G); experiment: cell_activity; PAM 5'-TTTG-3'; details: tags: pcDNA3.1 expression
T1 chain: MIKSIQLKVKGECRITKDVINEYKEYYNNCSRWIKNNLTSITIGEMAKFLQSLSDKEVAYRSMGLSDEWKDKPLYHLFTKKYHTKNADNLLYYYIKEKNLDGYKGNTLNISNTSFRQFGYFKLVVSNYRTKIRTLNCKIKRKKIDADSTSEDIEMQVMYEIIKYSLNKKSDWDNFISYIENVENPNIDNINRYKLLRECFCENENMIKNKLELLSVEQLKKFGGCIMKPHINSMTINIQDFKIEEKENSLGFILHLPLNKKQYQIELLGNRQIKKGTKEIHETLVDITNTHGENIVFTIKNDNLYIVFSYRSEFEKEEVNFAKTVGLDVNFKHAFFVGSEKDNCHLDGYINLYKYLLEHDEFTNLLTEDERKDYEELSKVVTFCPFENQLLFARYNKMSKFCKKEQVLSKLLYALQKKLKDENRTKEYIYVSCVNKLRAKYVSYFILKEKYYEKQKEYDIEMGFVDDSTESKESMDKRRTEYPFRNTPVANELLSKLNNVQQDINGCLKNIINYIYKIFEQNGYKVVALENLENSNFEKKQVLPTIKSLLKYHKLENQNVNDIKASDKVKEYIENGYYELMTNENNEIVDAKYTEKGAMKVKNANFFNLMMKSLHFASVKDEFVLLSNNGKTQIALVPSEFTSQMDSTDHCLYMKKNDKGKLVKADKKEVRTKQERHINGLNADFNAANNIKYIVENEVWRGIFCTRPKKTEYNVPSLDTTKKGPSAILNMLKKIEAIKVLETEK
Outline: (§1)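 HEK293T cells were lipofected with nuclease plasmid (pcDNA3.1 backbone) plus RNA guide plasmid, with guide omitted in negative controls. After ~72 h cells were lysed in QuickExtract and % indels were derived from NGS reads, averaged over two bioreplicates and two technical replicates.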

[2] = molecular target: T2, variant nuclease D55G/E736G combination (P14R, D32R, I61R, E311R, D55G, E736G); experiment: cell_activity; PAM 5'-TTTG-3'; details: tags: pcDNA3.1 expression
T2 chain: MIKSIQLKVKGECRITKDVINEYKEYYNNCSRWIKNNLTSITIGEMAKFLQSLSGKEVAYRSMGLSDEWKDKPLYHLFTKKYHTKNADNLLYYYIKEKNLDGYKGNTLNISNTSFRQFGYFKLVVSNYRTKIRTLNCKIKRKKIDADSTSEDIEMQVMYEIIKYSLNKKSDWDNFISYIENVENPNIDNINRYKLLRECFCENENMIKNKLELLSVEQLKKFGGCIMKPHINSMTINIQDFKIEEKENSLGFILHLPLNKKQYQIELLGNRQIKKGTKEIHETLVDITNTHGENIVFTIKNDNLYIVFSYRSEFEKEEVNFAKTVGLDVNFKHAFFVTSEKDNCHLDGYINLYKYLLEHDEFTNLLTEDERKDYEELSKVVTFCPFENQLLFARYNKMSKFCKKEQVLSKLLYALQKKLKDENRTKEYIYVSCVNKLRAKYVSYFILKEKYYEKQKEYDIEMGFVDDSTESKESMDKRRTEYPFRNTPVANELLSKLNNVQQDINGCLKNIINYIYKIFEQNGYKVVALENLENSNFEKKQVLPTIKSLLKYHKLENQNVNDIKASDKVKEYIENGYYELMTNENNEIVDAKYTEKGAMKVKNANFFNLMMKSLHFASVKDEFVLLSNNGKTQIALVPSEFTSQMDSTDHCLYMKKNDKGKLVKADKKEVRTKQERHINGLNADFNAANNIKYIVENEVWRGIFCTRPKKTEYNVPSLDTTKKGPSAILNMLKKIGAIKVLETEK
Outline: as §1

B1: AAVS1 crRNA ; AAVS1 target (ssRNA ; dsDNA)
RNA: CUUGUUGUAUAUGUCCUUUUAUAGGUAUUAAACAACUGAGAAUGGUGCGUCCUAGG
DNA 1: TGAGAATGGTGCGTCCTAGG
DNA 2: CCTAGGACGCACCATTCTCA
B1 was tested, and the indel activity [1] was 5.93 fold of WT and the indel activity [2] was 5.76 fold of WT.
